Our source for the ratio to parent and response values is paper PMC8441438, “Dynamic regulation of mitotic ubiquitin ligase APC/C by coordinated Plx1 kinase and PP2A phosphatase action on a flexible Apc1 loop” (The EMBO Journal, 2021).

B1: MBP-fused Apc1-loop^500 WT fragment [Xenopus tropicalis] / Plx1-PBD WT (polo-box domain of Plx1) [Xenopus laevis] (parent)
chain 1: EPADCYLSEMLQQLTCLNAVKPSERALIRQEEAEDPASIPIFWISKWVDYSDKYGLGYQLCDNSVGVLFNDSTRLIMYNDGDSLQYIERNNTESYLNVRSYPTTLTKKITLLKYFRNYMSEHLLKAGANTTPREGDELARLPFLRTWFRTRSAIILHLSNGTVQINFFQDHTKIILCPLMAAVSYIDEKREFRTYKLSLIQEFGCCKELASRLRYARTMVEKLQSSKSAVAHVKASA
chain 2: GLAAPSLGMSNPMPRPSTPLESISTPAKPLNKHLAPMDEAGMLSPVPELRDSTRLHESTYLDDCTFHQFG
B2: MBP-fused Apc1-loop^500 WT fragment [Xenopus tropicalis] / Plx1 (polo-like kinase homolog in Xenopus laevis), endogenous [Xenopus laevis (endogenous in egg extracts)] (parent)
chain 1: MAQVAGKKLTVAPEAAKPPGIPGSSSAVKEIPEILVDPRTRRRYLRGRFLGKGGFAKCYEITDLESREVFAGKIVPKTMLLKPHQKDKMTMEIAIQRSLDHRHVVGFHGFFEDNDFVYVVLELCRRRSLLELHKRRKAVTEPEARYYLKQTISGCQYLHSNRVIHRDLKLGNLFLNDEMEVKIGDFGLATKVEYDGERKKTLCGTPNYIAPEVLGKKGHSFEVDIWSIGCIMYTLLVGKPPFETSCLKETYMRIKKNEYSIPKHINPVAAALIQKMLRSDPTSRPTIDDLLNDEFFTSGYIPSRLPTTCLTVPPRFSIAPSTIDQSLRKPLTAINKGQDSPLVEKQVAPAKEEEMQQPEFTEPADCYLSEMLQQLTCLNAVKPSERALIRQEEAEDPASIPIFWISKWVDYSDKYGLGYQLCDNSVGVLFNDSTRLIMYNDGDSLQYIERNNTESYLNVRSYPTTLTKKITLLKYFRNYMSEHLLKAGANTTPREGDELARLPFLRTWFRTRSAIILHLSNGTVQINFFQDHTKIILCPLMAAVSYIDEKREFRTYKLSLIQEFGCCKELASRLRYARTMVEKLQSSKSAVAHVKASA
chain 2: B1 chain 2

Variants of B1 are the subject of the first assay. Kind of assay: MBP pull-down (amylose beads), SDS-PAGE with Coomassie brilliant blue staining, quantified. Particulars: anaphase extracts supplemented with non-degradable cyclin B, 23°C, 1 h, then 10 µg WT Plx1-PBD for 15 min, parent: 1, read off a plot.
For the variant chain 2 T18A T25A, the ratio to parent came out at 0.03.

The variants in the next assay derive from B1. Kind of assay: MBP pull-down (amylose beads), SDS-PAGE with Coomassie brilliant blue staining, quantified as bound Plx1-PBD per Apc1-loop500. The conditions noted are these: with MBP-fused Apc1-loop^500 WT fragment [Xenopus tropicalis]; input 10 µg Plx1-PBD, 15 min; Apc1-loop500 pre-incubated in anaphase extracts with non-degradable cyclin B, 23°C, 1 h; parent: 1.1; read off a plot.
For chain 1 H171A K173M, the response was determined as 0.07 A.U.

The same assay, now with this note: with MBP-fused Apc1-loop^500 WT fragment [Xenopus tropicalis]; input 15 µg Plx1-PBD, 15 min; Apc1-loop500 pre-incubated in anaphase extracts with non-degradable cyclin B, 23°C, 1 h; parent: 1.4; read off a plot.
Regarding chain 1 H171A K173M, the response stood at 0.09 A.U.

Another assay covers variants of B2. Kind of assay: MBP pull-down (amylose beads) from Xenopus egg anaphase extracts, immunoblot with Plx1 antibody, quantified. Particulars: anaphase extracts supplemented with non-degradable cyclin B, 23°C, 1 h, parent: 1, read off a plot. A general note: In western blotting, separated proteins are transferred to a membrane and probed.
With chain 2 S44A, the ratio to parent was determined as 0.5 A.U.

For the variant chain 2 T18A T25A, the ratio to parent amounted to 0.51 A.U.

On to chain 2 T18A, for which the ratio to parent is 0.92 A.U.

As for chain 2 T25A, the ratio to parent came to 0.61 A.U.
